Series [1] deals with T1, CpNDH2 (CpNDH2-WT; MBP-CpNDH2) (Cryptosporidium parvum, UniProt F0X6E5).
T1 construct: gene cgd7_1900; full-length ORF (568 predicted residues), N-terminal MBP fusion from pMAL-c5X, E. coli BL21(DE3), amylose-resin purified
The series can be described thus: inhibition of menadione reduction, NADH oxidation at […] nm. It counts as biochemical.

The subject of series [2] is CC(C)=CCC/C(C)=C/CC/C(C)=C/CC/C(C)=C/CC1=C(C)C(=O)c2ccccc2C1=O. The series can be described thus: purified protein. The settings on record: 400 μM NADH, pH 7.0, 25 °C, 0.1% Triton X-100, intact MBP fusion, Michaelis-Menten.
The test system of series [3] is CC(C)N=c1cc2n(-c3ccc(Cl)cc3)c3ccccc3nc-2cc1Nc1ccc(Cl)cc1. The series can be described thus: purified protein. The following applies: 400 μM NADH, pH 7.0, 25 °C, 0.1% Triton X-100, intact MBP fusion, positive cooperativity.
A further series deals with CC1=CC(=O)c2ccccc2C1=O. The series can be described thus: purified protein. The following applies: 400 μM NADH, pH 7.0, 25 °C, 0.1% Triton X-100, Michaelis-Menten.
Series [4] concerns COC1=C(OC)C(=O)C(C/C=C(\C)CCC=C(C)C)=C(C)C1=O. The series can be described thus: purified protein. The settings on record: 400 μM NADH, pH 7.0, 25 °C, 0.1% Triton X-100, intact MBP fusion, positive cooperativity.

T1 sequence (F0X6E5 entry or part of it): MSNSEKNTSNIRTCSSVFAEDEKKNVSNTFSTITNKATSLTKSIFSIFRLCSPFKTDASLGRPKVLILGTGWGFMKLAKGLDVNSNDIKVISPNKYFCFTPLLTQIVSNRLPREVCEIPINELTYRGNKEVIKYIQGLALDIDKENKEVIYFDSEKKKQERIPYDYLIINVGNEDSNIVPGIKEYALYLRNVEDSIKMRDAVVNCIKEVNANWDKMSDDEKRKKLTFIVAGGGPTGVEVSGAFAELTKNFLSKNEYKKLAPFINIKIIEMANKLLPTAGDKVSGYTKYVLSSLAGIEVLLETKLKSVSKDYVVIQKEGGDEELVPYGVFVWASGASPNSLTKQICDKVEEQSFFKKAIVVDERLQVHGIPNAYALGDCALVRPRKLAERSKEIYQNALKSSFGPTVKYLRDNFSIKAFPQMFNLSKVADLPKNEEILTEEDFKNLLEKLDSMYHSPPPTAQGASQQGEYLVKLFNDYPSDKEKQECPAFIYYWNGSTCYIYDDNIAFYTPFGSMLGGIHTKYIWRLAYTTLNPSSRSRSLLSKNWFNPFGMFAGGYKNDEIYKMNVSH

In the case of `CC(C)/N=c1\cc2n(-c3ccc(Cl)cc3)c3ccccc3nc-2cc1Nc1ccc(Cl)cc1` [CFZ, clofazimine], the midpoint of inhibition in series [1], the IC50, lay at 2.95 µM. This lies in the single-digit micromolar range.
Consider “CpNDH2 (CpNDH2-WT; MBP-CpNDH2) (Cryptosporidium parvum)”, for which the results for the Km (in series [2]; in the series with CC1=CC(=O)c2ccccc2C1=O) were 139.3 µM and 113.7 µM, respectively. For the same compound, the K0.5 in series [3] was determined as 30.0 µM; in series [4] it was 7.17 µM.

The values are drawn from paper doi:10.1101/2025.10.07.680968, “Widespread genomic heterogeneity at the type II NAD(P)H dehydrogenase locus predisposes Cryptosporidium to clofazimine resistance” (bioRxiv, 2025).
